The record followed here is patent US20210139548A1 (published 2021).

*1 amine or outer side, *2 acyl side, *3 side chain or, on linkers, in order; H or OH if unused. Side-chain parts run from the residue outwards. The star is where a group is joined. C18 diacid = O=C(O)CCCCCCCCCCCCCCCCC(=O)*; γGlu = O=C(O)[C@H](CCC(=O)[*:2])N[*:1]; Isovaleryl = CC(C)CC(=O)*; AEEA = NCCOCCOCC(=O)O

B1: Compound 204 (peptide)
peptide: Isovaleryl-APEK([AEEA-AEEA-γGlu-C18 diacid])PEEEASPEEVQRYYVSLRHYYNWLTRQRY-NH2
SMILES: CC(C)CC(=O)N[C@@H](C)C(=O)N1CCC[C@H]1C(=O)N[C@@H](CCC(=O)O)C(=O)N[C@@H](CCCCNC(=O)COCCOCCNC(=O)COCCOCCNC(=O)CC[C@H](NC(=O)CCCCCCCCCCCCCCCCC(=O)O)C(=O)O)C(=O)N1CCC[C@H]1C(=O)N[C@@H](CCC(=O)O)C(=O)N[C@@H](CCC(=O)O)C(=O)N[C@@H](CCC(=O)O)C(=O)N[C@@H](C)C(=O)N[C@@H](CO)C(=O)N1CCC[C@H]1C(=O)N[C@@H](CCC(=O)O)C(=O)N[C@@H](CCC(=O)O)C(=O)N[C@H](C(=O)N[C@@H](CCC(N)=O)C(=O)N[C@@H](CCCNC(=N)N)C(=O)N[C@@H](Cc1ccc(O)cc1)C(=O)N[C@@H](Cc1ccc(O)cc1)C(=O)N[C@H](C(=O)N[C@@H](CO)C(=O)N[C@@H](CC(C)C)C(=O)N[C@@H](CCCNC(=N)N)C(=O)N[C@@H](Cc1c[nH]cn1)C(=O)N[C@@H](Cc1ccc(O)cc1)C(=O)N[C@@H](Cc1ccc(O)cc1)C(=O)N[C@@H](CC(N)=O)C(=O)N[C@@H](Cc1c[nH]c2ccccc12)C(=O)N[C@@H](CC(C)C)C(=O)N[C@H](C(=O)N[C@@H](CCCNC(=N)N)C(=O)N[C@@H](CCC(N)=O)C(=O)N[C@@H](CCCNC(=N)N)C(=O)N[C@@H](Cc1ccc(O)cc1)C(N)=O)[C@@H](C)O)C(C)C)C(C)C
B2: Compound 209 (peptide)
peptide: Isovaleryl-APEK([AEEA-AEEA-γGlu-C18 diacid])PEEDSEPEELQRYYVSLRHYYNWLTRQRY-NH2
SMILES: CC(C)CC(=O)N[C@@H](C)C(=O)N1CCC[C@H]1C(=O)N[C@@H](CCC(=O)O)C(=O)N[C@@H](CCCCNC(=O)COCCOCCNC(=O)COCCOCCNC(=O)CC[C@H](NC(=O)CCCCCCCCCCCCCCCCC(=O)O)C(=O)O)C(=O)N1CCC[C@H]1C(=O)N[C@@H](CCC(=O)O)C(=O)N[C@@H](CCC(=O)O)C(=O)N[C@@H](CC(=O)O)C(=O)N[C@@H](CO)C(=O)N[C@@H](CCC(=O)O)C(=O)N1CCC[C@H]1C(=O)N[C@@H](CCC(=O)O)C(=O)N[C@@H](CCC(=O)O)C(=O)N[C@@H](CC(C)C)C(=O)N[C@@H](CCC(N)=O)C(=O)N[C@@H](CCCNC(=N)N)C(=O)N[C@@H](Cc1ccc(O)cc1)C(=O)N[C@@H](Cc1ccc(O)cc1)C(=O)N[C@H](C(=O)N[C@@H](CO)C(=O)N[C@@H](CC(C)C)C(=O)N[C@@H](CCCNC(=N)N)C(=O)N[C@@H](Cc1c[nH]cn1)C(=O)N[C@@H](Cc1ccc(O)cc1)C(=O)N[C@@H](Cc1ccc(O)cc1)C(=O)N[C@@H](CC(N)=O)C(=O)N[C@@H](Cc1c[nH]c2ccccc12)C(=O)N[C@@H](CC(C)C)C(=O)N[C@H](C(=O)N[C@@H](CCCNC(=N)N)C(=O)N[C@@H](CCC(N)=O)C(=O)N[C@@H](CCCNC(=N)N)C(=O)N[C@@H](Cc1ccc(O)cc1)C(N)=O)[C@@H](C)O)C(C)C
B3: Compound 207 (peptide)
peptide: Isovaleryl-APAK([AEEA-AEEA-γGlu-C18 diacid])PEADAEPEELQRYYVSLRHYYNWLTRQRY-NH2
SMILES: CC(C)CC(=O)N[C@@H](C)C(=O)N1CCC[C@H]1C(=O)N[C@@H](C)C(=O)N[C@@H](CCCCNC(=O)COCCOCCNC(=O)COCCOCCNC(=O)CC[C@H](NC(=O)CCCCCCCCCCCCCCCCC(=O)O)C(=O)O)C(=O)N1CCC[C@H]1C(=O)N[C@@H](CCC(=O)O)C(=O)N[C@@H](C)C(=O)N[C@@H](CC(=O)O)C(=O)N[C@@H](C)C(=O)N[C@@H](CCC(=O)O)C(=O)N1CCC[C@H]1C(=O)N[C@@H](CCC(=O)O)C(=O)N[C@@H](CCC(=O)O)C(=O)N[C@@H](CC(C)C)C(=O)N[C@@H](CCC(N)=O)C(=O)N[C@@H](CCCNC(=N)N)C(=O)N[C@@H](Cc1ccc(O)cc1)C(=O)N[C@@H](Cc1ccc(O)cc1)C(=O)N[C@H](C(=O)N[C@@H](CO)C(=O)N[C@@H](CC(C)C)C(=O)N[C@@H](CCCNC(=N)N)C(=O)N[C@@H](Cc1c[nH]cn1)C(=O)N[C@@H](Cc1ccc(O)cc1)C(=O)N[C@@H](Cc1ccc(O)cc1)C(=O)N[C@@H](CC(N)=O)C(=O)N[C@@H](Cc1c[nH]c2ccccc12)C(=O)N[C@@H](CC(C)C)C(=O)N[C@H](C(=O)N[C@@H](CCCNC(=N)N)C(=O)N[C@@H](CCC(N)=O)C(=O)N[C@@H](CCCNC(=N)N)C(=O)N[C@@H](Cc1ccc(O)cc1)C(N)=O)[C@@H](C)O)C(C)C
B4: Compound 205 (peptide)
peptide: Isovaleryl-APEK([AEEA-AEEA-γGlu-C18 diacid])PEEEASPEELQKYYVSLRHYYNWLTRQRY-NH2
SMILES: CC(C)CC(=O)N[C@@H](C)C(=O)N1CCC[C@H]1C(=O)N[C@@H](CCC(=O)O)C(=O)N[C@@H](CCCCNC(=O)COCCOCCNC(=O)COCCOCCNC(=O)CC[C@H](NC(=O)CCCCCCCCCCCCCCCCC(=O)O)C(=O)O)C(=O)N1CCC[C@H]1C(=O)N[C@@H](CCC(=O)O)C(=O)N[C@@H](CCC(=O)O)C(=O)N[C@@H](CCC(=O)O)C(=O)N[C@@H](C)C(=O)N[C@@H](CO)C(=O)N1CCC[C@H]1C(=O)N[C@@H](CCC(=O)O)C(=O)N[C@@H](CCC(=O)O)C(=O)N[C@@H](CC(C)C)C(=O)N[C@@H](CCC(N)=O)C(=O)N[C@@H](CCCCN)C(=O)N[C@@H](Cc1ccc(O)cc1)C(=O)N[C@@H](Cc1ccc(O)cc1)C(=O)N[C@H](C(=O)N[C@@H](CO)C(=O)N[C@@H](CC(C)C)C(=O)N[C@@H](CCCNC(=N)N)C(=O)N[C@@H](Cc1c[nH]cn1)C(=O)N[C@@H](Cc1ccc(O)cc1)C(=O)N[C@@H](Cc1ccc(O)cc1)C(=O)N[C@@H](CC(N)=O)C(=O)N[C@@H](Cc1c[nH]c2ccccc12)C(=O)N[C@@H](CC(C)C)C(=O)N[C@H](C(=O)N[C@@H](CCCNC(=N)N)C(=O)N[C@@H](CCC(N)=O)C(=O)N[C@@H](CCCNC(=N)N)C(=O)N[C@@H](Cc1ccc(O)cc1)C(N)=O)[C@@H](C)O)C(C)C
B5: Compound 208 (peptide)
peptide: Isovaleryl-APEK([AEEA-AEEA-γGlu-C18 diacid])PEEDASEEETQRYYVSLRHYYNWLTRQRY-NH2
SMILES: CC(C)CC(=O)N[C@@H](C)C(=O)N1CCC[C@H]1C(=O)N[C@@H](CCC(=O)O)C(=O)N[C@@H](CCCCNC(=O)COCCOCCNC(=O)COCCOCCNC(=O)CC[C@H](NC(=O)CCCCCCCCCCCCCCCCC(=O)O)C(=O)O)C(=O)N1CCC[C@H]1C(=O)N[C@@H](CCC(=O)O)C(=O)N[C@@H](CCC(=O)O)C(=O)N[C@@H](CC(=O)O)C(=O)N[C@@H](C)C(=O)N[C@@H](CO)C(=O)N[C@@H](CCC(=O)O)C(=O)N[C@@H](CCC(=O)O)C(=O)N[C@@H](CCC(=O)O)C(=O)N[C@H](C(=O)N[C@@H](CCC(N)=O)C(=O)N[C@@H](CCCNC(=N)N)C(=O)N[C@@H](Cc1ccc(O)cc1)C(=O)N[C@@H](Cc1ccc(O)cc1)C(=O)N[C@H](C(=O)N[C@@H](CO)C(=O)N[C@@H](CC(C)C)C(=O)N[C@@H](CCCNC(=N)N)C(=O)N[C@@H](Cc1c[nH]cn1)C(=O)N[C@@H](Cc1ccc(O)cc1)C(=O)N[C@@H](Cc1ccc(O)cc1)C(=O)N[C@@H](CC(N)=O)C(=O)N[C@@H](Cc1c[nH]c2ccccc12)C(=O)N[C@@H](CC(C)C)C(=O)N[C@H](C(=O)N[C@@H](CCCNC(=N)N)C(=O)N[C@@H](CCC(N)=O)C(=O)N[C@@H](CCCNC(=N)N)C(=O)N[C@@H](Cc1ccc(O)cc1)C(N)=O)[C@@H](C)O)C(C)C)[C@@H](C)O
B6: Compound 210 (peptide)
peptide: Isovaleryl-APEK([AEEA-AEEA-γGlu-C18 diacid])IEEEASPEELQRYYVSLRHYYNWLTRQRY-NH2
SMILES: CC[C@H](C)[C@H](NC(=O)[C@H](CCCCNC(=O)COCCOCCNC(=O)COCCOCCNC(=O)CC[C@H](NC(=O)CCCCCCCCCCCCCCCCC(=O)O)C(=O)O)NC(=O)[C@H](CCC(=O)O)NC(=O)[C@@H]1CCCN1C(=O)[C@H](C)NC(=O)CC(C)C)C(=O)N[C@@H](CCC(=O)O)C(=O)N[C@@H](CCC(=O)O)C(=O)N[C@@H](CCC(=O)O)C(=O)N[C@@H](C)C(=O)N[C@@H](CO)C(=O)N1CCC[C@H]1C(=O)N[C@@H](CCC(=O)O)C(=O)N[C@@H](CCC(=O)O)C(=O)N[C@@H](CC(C)C)C(=O)N[C@@H](CCC(N)=O)C(=O)N[C@@H](CCCNC(=N)N)C(=O)N[C@@H](Cc1ccc(O)cc1)C(=O)N[C@@H](Cc1ccc(O)cc1)C(=O)N[C@H](C(=O)N[C@@H](CO)C(=O)N[C@@H](CC(C)C)C(=O)N[C@@H](CCCNC(=N)N)C(=O)N[C@@H](Cc1c[nH]cn1)C(=O)N[C@@H](Cc1ccc(O)cc1)C(=O)N[C@@H](Cc1ccc(O)cc1)C(=O)N[C@@H](CC(N)=O)C(=O)N[C@@H](Cc1c[nH]c2ccccc12)C(=O)N[C@@H](CC(C)C)C(=O)N[C@H](C(=O)N[C@@H](CCCNC(=N)N)C(=O)N[C@@H](CCC(N)=O)C(=O)N[C@@H](CCCNC(=N)N)C(=O)N[C@@H](Cc1ccc(O)cc1)C(N)=O)[C@@H](C)O)C(C)C

The target in the assay is T1, human neuropeptide Y2 receptor (human, UniProt P49146 1-381).
T1 construct: whole, on cells; also called hNPY2 receptor; hNPY2-R
T1 sequence (looked up): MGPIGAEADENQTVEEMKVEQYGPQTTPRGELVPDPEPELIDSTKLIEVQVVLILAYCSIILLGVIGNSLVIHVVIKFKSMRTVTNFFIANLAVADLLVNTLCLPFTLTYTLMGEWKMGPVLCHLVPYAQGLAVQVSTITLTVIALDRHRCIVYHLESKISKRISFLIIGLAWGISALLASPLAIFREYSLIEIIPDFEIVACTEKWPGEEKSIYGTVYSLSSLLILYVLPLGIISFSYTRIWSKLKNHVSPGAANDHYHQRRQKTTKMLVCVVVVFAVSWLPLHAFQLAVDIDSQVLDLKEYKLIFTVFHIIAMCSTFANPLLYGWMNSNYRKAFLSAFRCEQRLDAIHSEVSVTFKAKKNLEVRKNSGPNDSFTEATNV
As to the kind of experiment: radioligand competition (125I-PYY(1-36)), hNPY2R membranes. Summed up: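 Commercial human Y2 receptor membranes (0.5 μg protein/well) were incubated with peptide for 2 h at room temperature in 50 mM HEPES, 5 mM MgCl₂, 1 mM CaCl₂, pH 7.4, with 0.2% ovalbumin. Bound radioligand was separated on PEI-soaked GF/C filters and counted by scintillation, and IC₅₀ came from nonlinear sigmoidal regression.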
The Ki is a measure of affinity in units of concentration, obtained from inhibition or displacement. High values mean lower affinity, low ones higher affinity. As to B1, the Ki came to 3.35 nM.

B2 had an inhibitory constant (Ki) of 8.07 nM.

On to B3, for which the Ki worked out at 1.07 nM.

In turn, B4 yielded a Ki of 1.9 nM.

As to B5, the Ki is 3.8 nM.

Take B6: the Ki was 10.5 nM.
